{"source": "paper PMC3488230", "assay_in_all_cases": "EMSA", "key": {"[1]": {"target": "Mfd D7AAA (Escherichia coli, UniProt P30958 1-1148, E1045A;D1048A;R1049A)"}, "[2]": {"target": "Mfd WA550 RA953 (Escherichia coli, UniProt P30958 1-1148, W550A;R953A)"}, "[3]": {"target": "Mfd WA550 (Escherichia coli, UniProt P30958 1-1148, W550A)"}, "[4]": {"target": "Mfd RA953 (Escherichia coli, UniProt P30958 1-1148, R953A)"}}, "data": [{"binder": "50 bp oligonucleotide duplex (dsDNA) DNA 1: CTCATACGACGCTGTCGATCCAGTCACTGTCATGCGCTATCCGATCCTAG DNA 2: CTAGGATCGGATAGCGCATGACAGTGACTGGATCGACAGCGTCGTATGAG", "values": [{"measurement": "binding result", "setting": "[1]", "result": "binds"}, {"measurement": "binding result", "setting": "[2]", "result": "no binding"}, {"measurement": "binding result", "setting": "[3]", "result": "binds"}, {"measurement": "binding result", "setting": "[4]", "result": "binds"}]}]}
